“And” between values parts separate entries of the source, which are not always exact repeats. Equal entries are not always repeated. Where two headings read alike, the source gives them in different places.
How the values were obtained:
A*02:01 (human), P04439 [1] = conditions: chains peptide; modification not given
A*02:01 (human), P04439 [2] = test: ProImmune REVEAL MHC class I-peptide binding assay, A*02:01
A*02:01 (human), P04439 [3] = test: ProImmune REVEAL MHC class I-peptide binding assay
A*11:01 (human), P04439 [4] = conditions: modification not given
A*03:01 (human), P04439 = conditions: modification not given
A*24:02 (human), P04439 [5] = test: ProImmune REVEAL MHC class I-peptide binding assay
A*11:01 (human), P04439 [6] = test: ProImmune REVEAL MHC class I-peptide binding assay
B*27:05 (human), P01889 = test: ProImmune REVEAL MHC class I-peptide binding assay
A*02:01 (human), P04439 [7] = conditions: chains peptide; modification not given; remark: listed apart in the source
HLA-A*32:01 = conditions: chains peptide; modification not given
HLA-B*40:01 = conditions: chains peptide; modification not given
HLA-B*15:01 = conditions: chains peptide; modification not given
B*07:02 (human), P01889 = test: ProImmune REVEAL MHC class I-peptide binding assay
H-2Kb (mouse), P01901 = biological target: T1, H-2Kb (mouse), P01901; test: ProImmune REVEAL MHC class I-peptide binding assay
T1 chain: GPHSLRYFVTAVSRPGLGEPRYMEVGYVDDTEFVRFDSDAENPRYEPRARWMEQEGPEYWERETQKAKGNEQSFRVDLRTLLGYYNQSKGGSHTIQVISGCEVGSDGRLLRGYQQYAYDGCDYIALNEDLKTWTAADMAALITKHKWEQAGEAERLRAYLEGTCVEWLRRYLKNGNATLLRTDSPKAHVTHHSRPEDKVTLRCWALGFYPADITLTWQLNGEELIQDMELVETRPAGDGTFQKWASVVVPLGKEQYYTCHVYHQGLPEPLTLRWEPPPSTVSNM

A*11:01 (human), P04439 [8] = conditions: modification not given; remark: listed apart in the source
A*24:02 (human), P04439 [9] = conditions: modification not given
A*11:01 (human), P04439 [10] = conditions: modification not given; remark: listed apart in the source
A*11:01 (human), P04439 [11] = conditions: modification not given; remark: listed apart in the source
A*24:02 (human), P04439 [12] = conditions: modification not given; remark: listed apart in the source
A*24:02 (human), P04439 [13] = conditions: modification not given; remark: listed apart in the source
A*24:02 (human), P04439 [14] = conditions: modification not given; remark: listed apart in the source
A*11:01 (human), P04439 [15] = conditions: modification not given; remark: listed apart in the source

RQWFFDLPL (modifications not checked)
IC50 (A*02:01 (human), P04439 [1]): 12 nM and 39 nM
REVEAL Score (A*02:01 (human), P04439 [2]): 80.5

GLYGNGVVT (modifications not checked)
REVEAL score at 0 h (A*02:01 (human), P04439 [3]): 87.7

ALTLHWFRK [SEQ ID NO: 311 serotype 4]
IC50 (A*11:01 (human), P04439 [4]): 47 nM
IC50 (A*03:01 (human), P04439): 34 nM

WTEAKMLLD (modifications not checked)
REVEAL score at 0 h (A*24:02 (human), P04439 [5]): 94.7

IVDLMCHAT (modifications not checked)
REVEAL score at 0 h (A*02:01 (human), P04439 [3]): 62.7

GTYGLNTFT (modifications not checked)
REVEAL score at 0 h (A*11:01 (human), P04439 [6]): 63.6

MGEAAAIFM (modifications not checked)
REVEAL score at 0 h (A*02:01 (human), P04439 [3]): 50.6

HWTEAKMLL (modifications not checked)
REVEAL score at 0 h (A*24:02 (human), P04439 [5]): 103

KLTYQNKVV (modifications not checked)
REVEAL score at 0 h (A*02:01 (human), P04439 [3]): 92.3

VGTYGLNTF (modifications not checked)
REVEAL score at 0 h (A*24:02 (human), P04439 [5]): 96

FKLTYQNKV (modifications not checked)
REVEAL score at 0 h (B*27:05 (human), P01889): 53.7

TVWFVPSIK (modifications not checked)
REVEAL score at 0 h (A*11:01 (human), P04439 [6]): 92.2

KQWFLDLPL
REVEAL Score (A*02:01 (human), P04439 [2]): 86
IC50 (A*02:01 (human), P04439 [7]): 11 nM

RQWFFDLPL [SEQ ID NO: 310 serotype 3]
IC50 (HLA-A*32:01): 7 nM
IC50 (HLA-B*40:01): 51 nM
IC50 (HLA-B*15:01): 80 nM

LMYFHRRDL (modifications not checked)
REVEAL score at 0 h (A*02:01 (human), P04439 [3]): 97.8
REVEAL score at 0 h (B*07:02 (human), P01889): 120
REVEAL score at 0 h (H-2Kb (mouse), P01901): 54.9

AISGDDCVV (modifications not checked)
REVEAL score at 0 h (A*02:01 (human), P04439 [3]): 91.1

SRNSTHEMY (modifications not checked)
REVEAL score at 0 h (B*07:02 (human), P01889): 52

PERVILAGP (modifications not checked)
REVEAL score at 0 h (B*07:02 (human), P01889): 56.1

PLSRNSTHE (modifications not checked)
REVEAL score at 0 h (B*07:02 (human), P01889): 65

VTFKNPHAK [SEQ ID NO: 309 serotype 2]
IC50 (A*11:01 (human), P04439 [8]): 17 nM

VVAAEMEEA (modifications not checked)
REVEAL score at 0 h (A*02:01 (human), P04439 [3]): 92.2

SYTMCSGKF [SEQ ID NO: 308 serotype 4]
IC50 (A*24:02 (human), P04439 [9]): 222 nM

VTFKNAHAK [SEQ ID NO: 309 serotype 3]
IC50 (A*11:01 (human), P04439 [10]): 17 nM

GEAAAIFMT (modifications not checked)
REVEAL score at 0 h (A*02:01 (human), P04439 [3]): 74.3
REVEAL score at 0 h (A*11:01 (human), P04439 [6]): 50.3
REVEAL score at 0 h (A*24:02 (human), P04439 [5]): 58.9

VTFKTAHAK [SEQ ID NO: 309 serotype 1]
IC50 (A*11:01 (human), P04439 [11]): 16 nM

SYAMCLNTF [SEQ ID NO: 308 serotype 3]
IC50 (A*24:02 (human), P04439 [12]): 540 nM

HATFTMRLL (modifications not checked)
REVEAL score at 0 h (H-2Kb (mouse), P01901): 69.5

ATFTMRLLS (modifications not checked)
REVEAL score at 0 h (A*11:01 (human), P04439 [6]): 58.5
REVEAL score at 0 h (H-2Kb (mouse), P01901): 55.6

FKPGTSGSP (modifications not checked)
REVEAL score at 0 h (B*07:02 (human), P01889): 50.4
REVEAL score at 0 h (H-2Kb (mouse), P01901): 45.7

YFHRRDLRL (modifications not checked)
REVEAL score at 0 h (A*24:02 (human), P04439 [5]): 87.5

MWHVTRGAV (modifications not checked)
REVEAL score at 0 h (A*02:01 (human), P04439 [3]): 62.7

YGLNTFTNM (modifications not checked)
REVEAL score at 0 h (H-2Kb (mouse), P01901): 75.4

LSRNSTHEM (modifications not checked)
REVEAL score at 0 h (B*07:02 (human), P01889): 124
REVEAL score at 0 h (H-2Kb (mouse), P01901): 51.1

SYVMCTGSF [SEQ ID NO: 308 serotype 1]
IC50 (A*24:02 (human), P04439 [13]): 104 nM

IPERSWNSG (modifications not checked)
REVEAL score at 0 h (B*07:02 (human), P01889): 45.2

TALTGATEI (modifications not checked)
REVEAL Score (A*02:01 (human), P04439 [2]): 0.9

ARGYISTRV (modifications not checked)
REVEAL score at 0 h (B*27:05 (human), P01889): 125

LMRRGDLPV (modifications not checked)
REVEAL score at 0 h (A*02:01 (human), P04439 [3]): 82.3
REVEAL score at 0 h (B*07:02 (human), P01889): 179

QQRVFKEKV (modifications not checked)
REVEAL score at 0 h (H-2Kb (mouse), P01901): 63.4

SYSMCTGKF [SEQ ID NO: 308 serotype 2]
IC50 (A*24:02 (human), P04439 [14]): 115 nM

VTFKVPHAK [SEQ ID NO: 309 serotype 4]
IC50 (A*11:01 (human), P04439 [15]): 14 nM

LAPTRVVAA (modifications not checked)
REVEAL score at 0 h (H-2Kb (mouse), P01901): 102

CHATFTMRL (modifications not checked)
REVEAL score at 0 h (A*24:02 (human), P04439 [5]): 75.9
REVEAL score at 0 h (H-2Kb (mouse), P01901): 60.3

LMCHATFTM (modifications not checked)
REVEAL score at 0 h (A*02:01 (human), P04439 [3]): 72.9
REVEAL score at 0 h (A*24:02 (human), P04439 [5]): 99.5
REVEAL score at 0 h (B*27:05 (human), P01889): 98.2
REVEAL score at 0 h (H-2Kb (mouse), P01901): 59

ISGDDCVVK (modifications not checked)
REVEAL score at 0 h (A*11:01 (human), P04439 [6]): 88.7

RRGDLPVWL (modifications not checked)
REVEAL score at 0 h (B*27:05 (human), P01889): 145
